According to publication PMC7118173 (Nature Communications, 2020):

What was measured:
[1] = tested on: C. glutamicum ATCC13032 whole-cell extracts; test: SepF and FtsZ quantification by Western blot; type: cell-based, Corynebacterium glutamicum; conditions: 60 ugr loaded
[2] = tested on: SepF; test: Western blots of whole-cell extracts (SepF depletion / expression); type: cell-based, C. glutamicum; conditions: Pino-sepF strain, 1% myo-inositol
Description: 24 homogenizer. Crude extracts (120 μg) were analyzed by SDS-PAGE, electro-transferred onto a 0.2 μm Nitrocellulose membrane and blocked with 5% (w/v) skimmed milk. Membranes were incubated with an anti-SepF antibody (produced by Covalab, Supplementary Fig. 25a), an anti-FtsZ antibody (produced by Proteogenix, Supplementary Fig. 25b) or an anti-mNeonGreen antibody (purchased from Chromotek) for 1 h at room temperature.

[3] = tested on: Pino-sepF strain; test: Growth curves / complementation of the Pino-sepF strain
Description: Positive colonies were grown in BHI media supplemented with 25 µg/ml kanamycin overnight at 30 °C and 120 rpm shaking.
All strains were plated in CGXII media plates with 4% (w/v) sucrose as a carbon source for 2 days at 30 °C and then single colonies were inoculated in 10 ml of CGXII media 4% (w/v) sucrose overnight at 30 °C and 120 rpm shaking. The next day, 20 ml of CGXII media supplemented with the appropriate repressor or inducer were inoculated with the overnight cultures to a starting OD600 of 1. OD600 measurements were taken every 1.5 h. Each growth curve represents the average of three different growth curves originally from three different single colonies. […] When required, CGXII media 4% (w/v) sucrose was supplemented with either 1% (w/v) myo-inositol, 50 ng/ml tetracycline or 1% (w/v) gluconate and 25 μg/ml kanamycin.

[4] = target: the molecule itself; test: crystal structure; SepFΔML 10 mg/ml with FtsZCTD 5.8 mg/ml (1:5 molar ratio), 100 mM sodium acetate pH 4.6, 30% PEG 4000, 18 °C; 1.6 Å
[5] = target: the molecule itself; test: turbidity + dynamic light scattering; SepF or SepF mutant with SUVs (POPC:POPG 8:2), 50 µM each, 100 mM KCl, 10 mM MgCl2, 25 mM Pipes pH 6.9, 25 °C
[6] = tested on: WT C. glutamicum; test: Number of ring-like structures per cell, overexpression in WT; type: cell-based, Corynebacterium glutamicum
[7] = tested on: Pino-sepF strain; test: Cell length distribution (violin plots), Pino-sepF strains; type: cell-based, Corynebacterium glutamicum
Description: For imaging, cultures of C. glutamicum were grown in BHI or minimal medium CGXII during the day, and washed and inoculated into CGXII media for overnight growth. The following day cultures were diluted to OD600 = 1 and grown to the required OD (early exponential phase) for imaging. For HADA labeling, cultures were incubated with 0.5 mM HADA for 20 min at 30 °C in the dark. Two percent agarose pads were prepared with the corresponding growth medium and cells were visualized using a Zeiss Axio Observer Z1 microscope fitted with an Orca Flash 4 V2 sCMOS camera (Hamamatsu), and a Pln-Apo 63×/1.4 oil Ph3 objective. Images were collected using Zen Blue 2.6 (Zeiss) and analyzed using the software Fiji[70] and the plugin MicrobeJ[71] to generate violin plots and fluorescent intensity heatmaps. […] The experiments were performed as biological triplicates.

[8] = Dynamic light scattering; type: physicochemical; conditions: protein alone
Description: Polydispersity of the samples was measured using Dyna-pro Plate Reader (Wyatt technology) equipped with an 830 nm laser and a temperature control module. The Dynamics software (version 7.9) was used to schedule data acquisition and data analysis. For each well, 20 measurements of 10 s were averaged and this operation was repeated 20 times for each condition at 25 °C. For samples containing FtsZCTD, the peptide was used at a final concentration of 100 µM. All the experiments were carried out as minimum three biological and technical replicates.

[9] = Negative stain EM of SUVs with SepF; type: biochemical; conditions: SepFΔα3 + SUVs, upon addition of FtsZCTD
[10] = tested on: SepF; test: SepF polymerization (turbidity) assay in the presence of SUVs; type: biochemical, C. glutamicum; conditions: SepF (or mutant) plus SUVs 50 µM each, pH 6.9, 25 °C
Description: When used, FtsZCTD was added at a final concentration of 100 μM.
Reverse phase evaporation was used to prepare small unilamellar vesicles (SUVs). A 10 mM lipid solution made of an 8:2 mixture of 1-palmitoyl-2-oleoyl phosphatidylcholine (POPC) and 1-palmitoyl-2-oleoylglycero-3-phosphoglycerol (POPG) (Avanti Polar Lipids) was prepared as described. Chloroform was removed by evaporation under vacuum conditions and the dried phospholipid film was resuspended in a mixture of diethyl ether and buffer (25 mM Hepes pH 7.4, 10 mM MgCl2 and 150 mM KCl). Diethyl ether was eliminated by reverse phase evaporation and by slowly decreasing the pressure to the vacuum. SUVs were obtained by sonication during 30 min at 4 °C. The diameter and charge of SUV were determined by measuring dynamic light scattering (DLS) and electrophoretic mobility profiles on a Zetasizer Nano instrument (Malvern Instruments).

[11] = target: the molecule itself; test: crystal structure; SepF_(ΔML,Δα3) 17 mg/ml alone, 0.1 M MES pH 6, 20% PEG MME 2000, 0.2 M NaCl, 18 °C
[12] = target: the molecule itself; test: SEC + AUC; sedimentation velocity, 42,000 rpm, 20 °C, 1-2 mg/ml, 50 mM Hepes pH 7.4, 150 mM KCl, 10 mM MgCl2; size exclusion chromatography
[13] = Negative stain EM of SepF rings; type: physicochemical; conditions: 50 μM, 50 mM HEPES pH 7.4, 300 mM KCl, 10 mM MgCl2
Description: For all samples, 400 mesh carbon coated grids (Electron Microscopy Sciences; CF 400-Cu) were glow-discharged on an ELMO system for 30 sec at 2 mA. 5 µl samples were applied onto the grids and incubated for 30 s, the sample was blotted, washed in 3 drops of water and then stained with 2% (weight/vol) uranyl acetate. Images were recorded on a Gatan UltraScan4000 charged coupled device (CCD) camera (Gatan) on a Tecnai T12 BioTWINLaB6 electron microscope operating at a voltage of 120 kV.

[14] = target: T1, His6-Sumo tagged SepFΔML (Corynebacterium glutamicum, UniProt Q8NNN6 63-152); test: SPR; Biacore T200, 25 °C, 25 mM HEPES pH 8, 150 mM KCl, 0.1 mM EDTA; His6-Sumo SepF variants covalently immobilised on NTA chips (3000-4000 RU); FtsZCTD 1.56 to 400 µM injected; steady-state fit; apparent Kd; conditions: both partners purified
T1 construct: SepF (cg2363), Corynebacterium glutamicum, amino acids 63 to 152; Covalently immobilised on an NTA sensor chip; also called immobilized SepF; source: E. coli BL21 (DE3), purified (Ni-NTA, dialysed directly without SUMO protease for SPR); not shown: His6, N-terminal, kept; SUMO, N-terminal, kept
T1 sequence (looked up): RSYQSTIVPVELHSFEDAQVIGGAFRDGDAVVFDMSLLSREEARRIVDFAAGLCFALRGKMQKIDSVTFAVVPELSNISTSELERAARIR

[15] = target: T2, His6-Sumo tagged SepF_(ΔML,F131A) (Corynebacterium glutamicum, UniProt Q8NNN6 63-152, F131A); test: as above; conditions: both partners purified
T2 construct: SepF (cg2363), Corynebacterium glutamicum, amino acids 63 to 152 with F131A; also called SepF_(F131A); source: E. coli BL21 (DE3), purified (Ni-NTA, dialysed directly without SUMO protease for SPR); not shown: His6, N-terminal, kept; SUMO, N-terminal, kept
T2 sequence (looked up): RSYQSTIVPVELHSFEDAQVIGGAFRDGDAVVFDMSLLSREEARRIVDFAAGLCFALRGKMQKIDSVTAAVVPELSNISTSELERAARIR

FtsZ: C. glutamicum FtsZ (cg2366)
band volume in whole-cell extract ([1]; ON S (over-night, sucrose)): 14.8379
band volume in whole-cell extract ([1]; ON S+G (over-night, sucrose + gluconate)): 18.4228
band volume in whole-cell extract ([1]; T6 S (6 h, sucrose)): 20.1825
band volume in whole-cell extract ([1]; T6 S+G (6 h, sucrose + gluconate)): 23.8045

O[C@H]1[C@H](O)[C@@H](O)[C@H](O)[C@@H](O)[C@H]1O [myo-inositol, reference compound]
SepF protein level [2]: rapid depletion of SepF
growth of Pino-sepF ([3]; 1% myo-inositol, after the first 6 h): growth stopped for the depleted strain

B1: C. glutamicum SepF C-terminal core domain (SepFΔML), tag removed (domain or fragment, Corynebacterium glutamicum, UniProt Q8NNN6 63-152, looked up)
chain: RSYQSTIVPVELHSFEDAQVIGGAFRDGDAVVFDMSLLSREEARRIVDFAAGLCFALRGKMQKIDSVTFAVVPELSNISTSELERAARIR
notes: Gene codon optimised and synthesised for E. coli; homodimer in the crystal; also called globular core of SepF; source: E. coli BL21 (DE3), purified (Ni-NTA, SUMO protease, SEC); not shown: His6, N-terminal, cleaved; SUMO, N-terminal, cleaved
binding result [4]: binds

B2: full-length C. glutamicum SepF (recombinant) (natural protein, Corynebacterium glutamicum, UniProt Q8NNN6 1-152, looked up)
chain: MSMLKKTKEFFGLAPYEAEHEDAYYADEPRYEGTAAYAPEYRERDYGYAPEAPAPVAPSPAPRSYQSTIVPVELHSFEDAQVIGGAFRDGDAVVFDMSLLSREEARRIVDFAAGLCFALRGKMQKIDSVTFAVVPELSNISTSELERAARIR
notes: SepF (cg2363), Corynebacterium glutamicum, full length; source: E. coli BL21 (DE3), purified (Ni-NTA, SUMO protease, SEC); not shown: His6, N-terminal, cleaved; SUMO, N-terminal, cleaved
binding result [5]: binds

B3: SepF-Scarlet: mScarlet-I fused on the C-terminal side of SepF (protein)
chain: MSMLKKTKEFFGLAPYEAEHEDAYYADEPRYEGTAAYAPEYRERDYGYAPEAPAPVAPSPAPRSYQSTIVPVELHSFEDAQVIGGAFRDGDAVVFDMSLLSREEARRIVDFAAGLCFALRGKMQKIDSVTFAVVPELSNISTSELERAARIR
modifications: left off: mScarlet-I, C-terminal, kept
frequency of cells with n septa (ring-like structures) ([6]; n septa 0, replicate 1): 0.369
frequency of cells with n septa (ring-like structures) ([6]; n septa 0, replicate 2): 0.283
frequency of cells with n septa (ring-like structures) ([6]; n septa 0, replicate 3): 0.282
frequency of cells with n septa (ring-like structures) ([6]; n septa 1, replicate 1): 0.513
frequency of cells with n septa (ring-like structures) ([6]; n septa 1, replicate 2): 0.547
frequency of cells with n septa (ring-like structures) ([6]; n septa 1, replicate 3): 0.565
frequency of cells with n septa (ring-like structures) ([6]; n septa 2, replicate 1): 0.104
frequency of cells with n septa (ring-like structures) ([6]; n septa 2, replicate 2): 0.153
frequency of cells with n septa (ring-like structures) ([6]; n septa 2, replicate 3): 0.127
frequency of cells with n septa (ring-like structures) ([6]; n septa 3, replicate 1): 0.014
frequency of cells with n septa (ring-like structures) ([6]; n septa 3, replicate 2): 0.017
frequency of cells with n septa (ring-like structures) ([6]; n septa 3, replicate 3): 0.025
frequency of cells with n septa (ring-like structures) ([6]; n septa 4, replicate 1): 0
frequency of cells with n septa (ring-like structures) ([6]; n septa 4, replicate 2): 0
frequency of cells with n septa (ring-like structures) ([6]; n septa 4, replicate 3): 0
frequency of cells with n septa (ring-like structures) ([6]; n septa 5, replicate 1): 0
frequency of cells with n septa (ring-like structures) ([6]; n septa 5, replicate 2): 0
frequency of cells with n septa (ring-like structures) ([6]; n septa 5, replicate 3): 0
frequency of cells with n septa (ring-like structures) ([6]; n septa 6, replicate 1): 0
frequency of cells with n septa (ring-like structures) ([6]; n septa 6, replicate 2): 0
frequency of cells with n septa (ring-like structures) ([6]; n septa 6, replicate 3): 0
frequency of cells with n septa (ring-like structures) ([6]; n septa 7, replicate 1): 0
frequency of cells with n septa (ring-like structures) ([6]; n septa 7, replicate 2): 0
frequency of cells with n septa (ring-like structures) ([6]; n septa 7, replicate 3): 0
ring-like structures per cell ([6]; overexpression in WT background): mostly single rings at mid-cell
mean cell length ([7]; 1% myo-inositol + 1% gluconate, t = 6, replicate 1, listed as PgntK_SepF_Scarlet): 5.38
cell elongation on complementation ([7]; PgntK, compared with control cells): cells were more elongated than control cells
complementation of SepF depletion (growth) ([3]; SepF depletion with 1% myo-inositol, exogenous construct induced): complemented the SepF depletion strain for growth

B4: SepFΔα3 (domain or fragment, Corynebacterium glutamicum, UniProt Q8NNN6 1-137, looked up)
chain: MSMLKKTKEFFGLAPYEAEHEDAYYADEPRYEGTAAYAPEYRERDYGYAPEAPAPVAPSPAPRSYQSTIVPVELHSFEDAQVIGGAFRDGDAVVFDMSLLSREEARRIVDFAAGLCFALRGKMQKIDSVTFAVVPEL
notes: SepF (cg2363), Corynebacterium glutamicum, amino acids 1 to 137 (without the C-terminal helix α3); source: E. coli BL21 (DE3), purified (Ni-NTA, SUMO protease, SEC); not shown: His6, N-terminal, cleaved; SUMO, N-terminal, cleaved
binding result [5]: binds

B5: SepFΔα3: SepF amino acids 1 to 137, lacking the regulatory C-terminal helix (protein)
chain: MSMLKKTKEFFGLAPYEAEHEDAYYADEPRYEGTAAYAPEYRERDYGYAPEAPAPVAPSPAPRSYQSTIVPVELHSFEDAQVIGGAFRDGDAVVFDMSLLSREEARRIVDFAAGLCFALRGKMQKIDSVTFAVVPEL
modifications: left off: His6, N-terminal, cleaved | SUMO, N-terminal, cleaved
dispersity by DLS [8]: monodisperse
reversal by FtsZCTD of particle formation and vesicle tubulation [9]: only partially reversed
polymerization with SUVs (turbidity) [10]: polymerization and vesicle tubulation were also seen but could only be partially reversed

B6: SepF_(ΔML,Δα3) (domain or fragment, Corynebacterium glutamicum, UniProt Q8NNN6 63-137, looked up)
chain: RSYQSTIVPVELHSFEDAQVIGGAFRDGDAVVFDMSLLSREEARRIVDFAAGLCFALRGKMQKIDSVTFAVVPEL
notes: SepF (cg2363), Corynebacterium glutamicum, amino acids 63 to 137 (core domain without the C-terminal helix α3); Dimers associate into linear polymers in the crystals; source: E. coli BL21 (DE3), purified (Ni-NTA, SUMO protease, SEC); not shown: His6, N-terminal, cleaved; SUMO, N-terminal, cleaved
binding result [11]: binds

B7: C. glutamicum SepF devoid of helix α3 (construct of the SEC and AUC experiments) (domain or fragment)
chain: MSYQSTIVPVELHSFEDAQVIGGAFRDGDAVVFDMSLLSREEARRIVDFAAGLCFALRGKMQKIDSVTFAVVPEL
stoichiometry N [12]: 2

B8: M. tuberculosis SepFΔML (domain or fragment)
chain: EDGHPLSKITTLRPKDYSEARTIGERFRDGSPVIMDLVSMDNADAKRLVDFAAGLAFALRGSFDKVATKVFLLSPADVDVSPEERRRIAETGFYAYQ
notes: also called MtbSepFΔML
ring diameter [13]: ~ 40 nm

B9: FtsZCTD peptide (conserved C-terminal domain of C. glutamicum FtsZ, 10 residues) (peptide)
peptide: DDLDVPSFLQ
notes: C-terminal 10 residues of FtsZ (cg2366), Corynebacterium glutamicum; the printed residues D436, P438 and F440 place the peptide at 433-442; also called FtsZ C-terminal domain peptide; source: synthetic peptide, bought: Genosphere
Kd [14]: 15 µM
Kd [15]: 340 µM
